Each block holds one substance with its values, some of them ahead of it.
Experiments:
CTLA4Ig (human) [1] = assay: solid phase competition of 125I-B7Ig binding to immobilized CTLA4Ig
CTLA4Ig (human) [2] = assay: Scatchard analysis of competition data, 125I-B7Ig on immobilized CTLA4Ig
CTLA4Ig (human) [3] = assay: 125I-B7Ig (4 nM) on plate-coated CTLA4Ig
[4] = target: CD28 expressed on transfected cells (human) (UniProt P10747); assay: inhibition of 125I-B7Ig binding to cell surface expressed CD28
[5] = target: CD28Ig (human) [IgG part: P01857]; assay: inhibition of 125I-B7Ig binding to immobilized CD28Ig
B7Ig (human) = B7Ig (human) (UniProt P33681); assay: solid phase competition of 125I-B7Ig binding to immobilized CTLA4Ig
[6] = target: B7 antigen (B7-1, CD80) expressed on cells (human) (UniProt P33681); assay: cell-based or functional assay

IC50 (CTLA4Ig (human) [1]): 175 nM
Kd (CTLA4Ig (human) [2]): 12 nM
radioactivity bound to wells treated without competitor (CTLA4Ig (human) [3]): 28300 cpm
Substance: B7Ig (from UniProt P33681 35-249; P01857 99-330) (Fc fusion)

inhibition of ^125I-B7Ig binding [4]: > 90%
inhibition of ^125I-B7Ig binding [5]: > 90%
Substance: mAb 9.3 (antibody)

IC50 (B7Ig (human)): 22 nM
inhibition of Th-induced IgM production [6]: 65%
Substance: mAb BB-1 (antibody)

Source: patent publication US7105166
